Source: article PMC4824898, “Characterisation of Schizosaccharomyces pombe α-actinin” (PeerJ, 2016)
Read-outs that look alike come from different tables or passages of the source.

Assays:
[1] = target: the molecule itself; assay: SEC; gel filtration on Superdex 200 10/300GL in 50 mM Tris-HCl, pH 7.6, 200 mM KCl (also Sephacryl S-400HR in 25 mM sodium phosphate, pH 7.6, 150 mM NaCl); elution compared with reference proteins; dimer formation judged from apparent size
[2] = target: the molecule itself; assay: as above; remark: listed apart in the source

B1: rod domain (ROD) of S. pombe α-actinin (domain or fragment, Schizosaccharomyces pombe, UniProt O13728 228-483, looked up)
chain: AFSTLDKVETAARRVERFTEVLMSTHDMKIDYESRMKRLLGSIARMQEYWHTVQFENNYTDVKSHSNNFAKFKATEKREWVKEKIDLESLLGTIQTNLKTYQLRKYEPPAGLKIVDLERQWKDFLSEEANQSKLINTHMREIKESMRIAFADRANSFSKMLSTISNEITNLQGDWRDQLDHVEFLQEHLGPLEVELASVKVLYDNCFQAGIEENDYTMFSYEDLEHEFGITANIIANKIKYLENELLEREKRTLSK
notes: alpha-actinin of Schizosaccharomyces pombe, rod domain with two putative spectrin repeats, nucleotides 682-1449, residues 228-483; 258 residues in all; also called pTEV-SP-ROD; source: E. coli BL21(DE3), purified (nickel chelating column, TEV cleavage, ion exchange when necessary); not shown: 10xHis, N-terminal, cleaved
binding result [1]: binds

B2: ABD-ROD of S. pombe α-actinin (domain or fragment, Schizosaccharomyces pombe, UniProt O13728 1-483, looked up)
chain: MQANQWQSVQNRTFTKWFNTKLSSRDLPSVFDLRKDLSDGILLIQLLEIIGDENLGRYNRNPRMRVHRLENVNKALEYIKSKGMPLTNIGPADIVDGNLKLILGLIWTLILRFTIADINEEGLTAKEGLLLWCQRKTANYHPEVDVQDFTRSWTNGLAFCALIHQHRPDLLDYNKLDKKNHRANMQLAFDIAQKSIGIPRLIEVEDVCDVDRPDERSIMTYVAEYFHAFSTLDKVETAARRVERFTEVLMSTHDMKIDYESRMKRLLGSIARMQEYWHTVQFENNYTDVKSHSNNFAKFKATEKREWVKEKIDLESLLGTIQTNLKTYQLRKYEPPAGLKIVDLERQWKDFLSEEANQSKLINTHMREIKESMRIAFADRANSFSKMLSTISNEITNLQGDWRDQLDHVEFLQEHLGPLEVELASVKVLYDNCFQAGIEENDYTMFSYEDLEHEFGITANIIANKIKYLENELLEREKRTLSK
notes: 485 residues in all; also called pTEV-SP-ABD-ROD; source: E. coli BL21(DE3), purified (nickel chelating column, TEV cleavage, ion exchange when necessary); not shown: 10xHis, N-terminal, cleaved
binding result [1]: binds

B3: ROD-EF of S. pombe α-actinin (domain or fragment, Schizosaccharomyces pombe, UniProt O13728 228-621, looked up)
chain: AFSTLDKVETAARRVERFTEVLMSTHDMKIDYESRMKRLLGSIARMQEYWHTVQFENNYTDVKSHSNNFAKFKATEKREWVKEKIDLESLLGTIQTNLKTYQLRKYEPPAGLKIVDLERQWKDFLSEEANQSKLINTHMREIKESMRIAFADRANSFSKMLSTISNEITNLQGDWRDQLDHVEFLQEHLGPLEVELASVKVLYDNCFQAGIEENDYTMFSYEDLEHEFGITANIIANKIKYLENELLEREKRTLSKQELDGITKVFRHFEKKKSNMLNEVEFYAALASLGLVYDTEEGTALFHRAANSEEGVTYERFTEIVMEELEDRDSARQVLYAFCDVADGKSYVTSDDLLRSQVRPNIVKFLECNMNKHSEGLDYLTWIKQLLAEDKEIV
notes: 396 residues in all; also called pTEV-SP-ROD-EF; source: E. coli BL21(DE3), purified (nickel chelating column, TEV cleavage, ion exchange when necessary); not shown: 10xHis, N-terminal, cleaved
binding result [1]: binds

B4: full-length S. pombe α-actinin (natural protein, Schizosaccharomyces pombe, UniProt O13728 1-621, looked up)
chain: MQANQWQSVQNRTFTKWFNTKLSSRDLPSVFDLRKDLSDGILLIQLLEIIGDENLGRYNRNPRMRVHRLENVNKALEYIKSKGMPLTNIGPADIVDGNLKLILGLIWTLILRFTIADINEEGLTAKEGLLLWCQRKTANYHPEVDVQDFTRSWTNGLAFCALIHQHRPDLLDYNKLDKKNHRANMQLAFDIAQKSIGIPRLIEVEDVCDVDRPDERSIMTYVAEYFHAFSTLDKVETAARRVERFTEVLMSTHDMKIDYESRMKRLLGSIARMQEYWHTVQFENNYTDVKSHSNNFAKFKATEKREWVKEKIDLESLLGTIQTNLKTYQLRKYEPPAGLKIVDLERQWKDFLSEEANQSKLINTHMREIKESMRIAFADRANSFSKMLSTISNEITNLQGDWRDQLDHVEFLQEHLGPLEVELASVKVLYDNCFQAGIEENDYTMFSYEDLEHEFGITANIIANKIKYLENELLEREKRTLSKQELDGITKVFRHFEKKKSNMLNEVEFYAALASLGLVYDTEEGTALFHRAANSEEGVTYERFTEIVMEELEDRDSARQVLYAFCDVADGKSYVTSDDLLRSQVRPNIVKFLECNMNKHSEGLDYLTWIKQLLAEDKEIV
notes: also called full length α-actinin; pTEV-SP; source: E. coli BL21(DE3), purified (nickel chelating column, TEV cleavage, ion exchange when necessary); not shown: 10xHis, N-terminal, cleaved
binding result [2]: binds
